Data as given in paper PMC4275180.

How the values were obtained:
Stat1 [1] = biological target: Stat1 (UniProt P42224); assay: GST pull-down after in vitro kinase reaction; settings: reference: His-KDM3A(1-394) not phosphorylated by MSK1; sites S264
Stat1 [2] = biological target: Stat1 (UniProt P42224); assay: FLAG co-IP, western blot; settings: reference: wild type FLAG-KDM3A; sites S264

| binding against the reference (Stat1 [1]) | binding against the reference (Stat1 [2]) | Substance |
| --- | --- | --- |
| gained | – | KDM3A 1-394 (from UniProt Q9Y4C1) His-KDM3A(1-394) phosphorylated by recombinant MSK1 |
| – | lost | KDM3A (from UniProt Q9Y4C1) S264A |
